Measurements reported in US10925971B2, “Methods of treating PRLR positive breast cancer” (Regeneron Pharmaceuticals, Inc., priority 2016, dated 2021).

Assays:
[1] = system: PC3/PRLR tumors; experiment: PC3/PRLR xenograft, tumor size and tumor growth inhibition; type: in vivo, SCID mice
Text: (§1) Briefly, 20×10^6 MCF7/PRLR cells (ATCC HTB-22 transfected with full length hPRLR as previously described) were implanted subcutaneously into the left mammary fat pad of female NCr nude mice. In other studies, 10×10^6 PC3/PRLR (ATCC CRL-1435 transfected with full length hPRLR as previously described) were implanted subcutaneously into the left flank of male SCID mice. Additionally, 10×10^6 parental T47D (ATCC HTB-133) or 7.5×10^10 T47D #11 cells (ATCC HTB-133 serially passaged in vivo as described below) were subcutaneously implanted into the left flank of female CB17 SCID mice. All mice were obtained from Taconic (Hudson, N.Y.). Each bolus of cells was supplemented with a 90-day estrogen release pellet (1.7 mg/pellet; Innovative Research America, Sarasota Fla.). […] Control reagents included PBS vehicle, free methyl-disulfide DM1 (DM1-SMe) and isotype Control 1-DM1.
(§2) In multi-dose studies, mice were dosed once a week for a total of three weeks with tumor volumes and body weights being monitored twice weekly throughout the study. Test ADCs were dosed at 5 and/or 15 mg/kg in the multi-dose studies. In single-dose studies, mice received a single dose of test ADC, and tumor volumes and body weights were monitored twice weekly throughout the study. Test ADCs were dosed at 1, 2.5, 5, and 15 mg/kg in the single-dose studies. Average tumor size as well as tumor growth inhibition relative to the vehicle treated group were calculated for each group. Tumors were measured with calipers twice a week until the average size of the vehicle group reached 1000 mm^3. Tumor size was calculated using the formula (length×width^2)/2. Tumor growth inhibition was calculated according to the following formula: (1−((Tfinal−Tinitial)/(Cfinal−Cinitial)))*100, where T (treated group) and C (control group) represent the mean tumor mass on the day the vehicle group reached 1000 mm^3. […] Results are summarized in Tables 21-25 (multi-dose) and Table 26 (single dose). (NT=not tested in the particular experiment shown).

[2] = system: PC3 cells; experiment: In vitro cell viability (cell kill) assay, CCK8; type: cell-based, human
Text: (§3) PRLR-overexpressing cells, including HEK293, PC3, MCF7 and NCI-N87, were generated to assess the ability of anti-PRLR conjugated antibodies to reduce cell viability. For comparative purposes, PC3 and T47D cells with overexpressed ErbB2 were also generated, as well as an MCF7 cell line over-expressing both hPRLR and hErbB2. Briefly, Lipofectamine® 2000-mediated transfection methodology was utilized to generate HEK293 cells expressing human PRLR (HEK293/hPRLR) or human ErbB2 (HEK293/hErbB2). Lipofectamine LTX with Plus Reagent was used to generate PC3 cells expressing human PRLR (PC3/hPRLR) or human ErbB2 (PC3/hErbB2). Lentiviral-mediated transduction was utilized to generate MCF7 cells expressing human PRLR (MCF7/hPRLR), NCI-N87 cells expressing human PRLR (NCI-N87/hPRLR), T47D cells over-expressing human ErbB2 (T47D/hErbB2), and MCF7 cells expressing both human PRLR and human ErbB2 (MCF7/hPRLR/hErbB2). All lines were selected for at least two weeks in complete growth media plus appropriate selection reagents. Stably expressing populations were enriched for PRLR expression via FACS using the anti PRLR antibody Control I.
(§4) Next, the ability of anti-PRLR-DM1 antibody-drug conjugates (i.e., anti-PRLR antibodies conjugated to DM1 via a non-cleavable linker [SMCC]) to reduce cell viability was determined using in vitro cell based assays. Cells were seeded in PDL-coated 96 well plates at 1500 to 10000 cells per well in complete growth media and allowed to grow overnight. For cell viability curves, ADCs or free DM1 (as the methyl disulfide derivative DM1-SMe) were added to the cells at final concentrations ranging from 500 nM to 5 pM and incubated for 3 days. The 293, PC3 and T47D cells were incubated with CCK8 (Dojindo, Rockville, Md.) for the final 1-3 hours and the absorbance at 450 nm (OD450) was determined on a Flexstation3 (Molecular Devices, Sunnyvale, Calif.). MCF7 cells were treated with Hoechst 33342 nuclear stain while being fixed with 4% formaldehyde. Images were acquired on the ImageXpress micro XL (Molecular Devices, Sunnyvale, Calif.) and nuclear counts were determined via Columbus image analysis software (Perkin Elmer, Shelton, Conn.). Background OD450 values (PC3, 293, and T47D) or nuclear counts (MCF7) from digitonin (40 nM) treated cells was subtracted from all wells and viability was expressed as a percentage of the untreated controls. IC50 values were determined from a four-parameter logistic equation over a 10-point response curve (GraphPad Prism).

[3] = system: MCF7/PRLR tumors; experiment: MCF7/PRLR breast cancer xenograft, tumor size and tumor growth inhibition; type: in vivo, NCr nude mice; conditions: for Average Tumor Growth Inhibition (%) / Final Tumor size mm^3 (mean ± SEM): MCF7/PRLR tumors TRIAL #1, NCr Nude mice, Day 52
Text: as §1, §2

[4] = system: HEK293 (293) cells; experiment: In vitro cell viability (cell kill) assay, CCK8; type: cell-based, human; conditions: 293
Text: as §3, §4

[5] = PC3/PRLR tumors TRIAL #1, SCID mice, multi-dose 5 mg/kg, Day 63

B1: H1H6975N-DM1 (conjugate)
VH: EVHLVESGGGLVQPGGSLRLSCAASGFTFSSYEMNWVRQTPGKGLEWISHISSRSVIIYYADSVKGRFTISRDNAKNSLFLQMNSLRAEDTAVYFCAGITIFGIPEYWGQGTLVTVSS
VL: EIVLTQSPATLSLSPGERATLSCRASQSVSSYFAWYQQKPGQAPRLLIYDASSRATGIPTRFSGSGSGTDFTLTISSLEPEDFAVYYCQQRSSWPITFGQGTRLEIK
- Average Tumor Growth Inhibition (%) [1, 5]: 31%
- Final Tumor size mm^3 (mean ± SEM) [1, 5]: 973 ± 169 mm^3
- Final Tumor size mm^3 (mean ± SEM) ([1]; PC3/PRLR tumors TRIAL #1, SCID mice, multi-dose 15 mg/kg, Day 63): 895 ± 63 mm^3
- PC3/PRLR tumor growth ([1]; multi-dose, especially at 15 mg/kg): demonstrated inhibition of tumor growth
- % Kill ([2]; Table 11, 3 days): 71%
- Average Tumor Growth Inhibition (%) ([3]; multi-dose 5 mg/kg): 118%
- Final Tumor size mm^3 (mean ± SEM) ([3]; multi-dose 5 mg/kg): 125 ± 46 mm^3
- Average Tumor Growth Inhibition (%) ([3]; multi-dose 15 mg/kg): 135%
- Final Tumor size mm^3 (mean ± SEM) ([3]; multi-dose 15 mg/kg): 0 ± 0 mm^3
- MCF7/PRLR tumor growth ([3]; first multi-dose trial, 5 and 15 mg/kg): potently inhibited MCF7/PRLR tumor growth

B2: H1H6975P-mc-VC-PAB-MMD (conjugate)
VH: EVHLVESGGGLVQPGGSLRLSCAASGFTFSSYEMNWVRQTPGKGLEWISHISSRSVIIYYADSVKGRFTISRDNAKNSLFLQMNSLRAEDTAVYFCAGITIFGIPEYWGQGTLVTVSS
VL: EIVLTQSPATLSLSPGERATLSCRASQSVSSYFAWYQQKPGQAPRLLIYDASSRATGIPTRFSGSGSGTDFTLTISSLEPEDFAVYYCQQRSSWPITFGQGTRLEIK
- IC50 ([4]; Table 19): 110 nM

B3: H1H6782P-mc-VC-PAB-MMD (conjugate)
VH: EVQLVESGGGLVQPGRSLRLSCAASGFTFDDYAMHWVRQAPGKGLEWVSGIIWNSGHIGYGDSVKGRFTISRDNAKKSLYLQMNSLRAEDTALYYCARDSGRYQSYFDYWGQGTLVTVSS
VL: DIQMTQSPSTLSASVGDRVTITCRASHIISSWLAWYQQKPGKAPKVLIFKASSLESGVPSRFSGSGSGTEFTLTISSLQPDDFATYYCQQYNTYSRTFGQGTKVEIK
- IC50 ([4]; Table 19): 230 nM

B4: H1H6782P-mc-VC-PAB-MeNHC3-May (conjugate)
VH: EVQLVESGGGLVQPGRSLRLSCAASGFTFDDYAMHWVRQAPGKGLEWVSGIIWNSGHIGYGDSVKGRFTISRDNAKKSLYLQMNSLRAEDTALYYCARDSGRYQSYFDYWGQGTLVTVSS
VL: DIQMTQSPSTLSASVGDRVTITCRASHIISSWLAWYQQKPGKAPKVLIFKASSLESGVPSRFSGSGSGTEFTLTISSLQPDDFATYYCQQYNTYSRTFGQGTKVEIK
- IC50 ([4]; Table 19): 60 nM

B5: H1H6953N-SMCC-DM1 (conjugate)
VH: EVQLLESGGGLVQPGGTLRLSCAASGFTFSAYAMSWVRQAPGKGLEWVSSINVRAGDTYYADSVKGRFTISRDNSKNTLFLLMNSLRAEDTAAYYCAKARYSSNWGFDFWGQGTLVTVSS
VL: DIVMTQSPDSLTVSLGARTTINCQSSQTILHSSNNHNYLAWYQQKPGLPPKLLIYWSSTRESGVPDRFSGSGSGTDFTLTISSLQAEDVAIYYCQQYSNTPYTFGQGTKLEIN
- % Kill ([2]; Table 18): 81%

B6: H1H6953N-mc-VC-PAB-MMAE (conjugate)
VH: EVQLLESGGGLVQPGGTLRLSCAASGFTFSAYAMSWVRQAPGKGLEWVSSINVRAGDTYYADSVKGRFTISRDNSKNTLFLLMNSLRAEDTAAYYCAKARYSSNWGFDFWGQGTLVTVSS
VL: DIVMTQSPDSLTVSLGARTTINCQSSQTILHSSNNHNYLAWYQQKPGLPPKLLIYWSSTRESGVPDRFSGSGSGTDFTLTISSLQAEDVAIYYCQQYSNTPYTFGQGTKLEIN
- % Kill ([2]; Table 18): 49%
- IC50 ([2]; Table 18): 130 nM

B7: H1H6953N-mc-VC-PAB-MMD (conjugate)
VH: EVQLLESGGGLVQPGGTLRLSCAASGFTFSAYAMSWVRQAPGKGLEWVSSINVRAGDTYYADSVKGRFTISRDNSKNTLFLLMNSLRAEDTAAYYCAKARYSSNWGFDFWGQGTLVTVSS
VL: DIVMTQSPDSLTVSLGARTTINCQSSQTILHSSNNHNYLAWYQQKPGLPPKLLIYWSSTRESGVPDRFSGSGSGTDFTLTISSLQAEDVAIYYCQQYSNTPYTFGQGTKLEIN
- IC50 ([4]; Table 19): 110 nM

B8: H1H6953N-mc-VC-PAB-MeNHC3-May (conjugate)
VH: EVQLLESGGGLVQPGGTLRLSCAASGFTFSAYAMSWVRQAPGKGLEWVSSINVRAGDTYYADSVKGRFTISRDNSKNTLFLLMNSLRAEDTAAYYCAKARYSSNWGFDFWGQGTLVTVSS
VL: DIVMTQSPDSLTVSLGARTTINCQSSQTILHSSNNHNYLAWYQQKPGLPPKLLIYWSSTRESGVPDRFSGSGSGTDFTLTISSLQAEDVAIYYCQQYSNTPYTFGQGTKLEIN
- % Kill ([4]; Table 19): 20%

B9: H1H6800P-DM1 (conjugate)
VH: EVQLVESGGGLVQPGRSLRLSCAASGFTFDGYAMHWVRQGPGKGLEWVSGISWYSDTLGYADSVKGRFTISRDNAKNSLYLQMNSLRTEDTAFYYCAKISSSGWAFDYWGQGTLVTVSS
VL: EIVLTQSPGTLSLSPGERATLSCRASHSVSSAYLAWYQQKPGQTPRLLIYGTSSRATGIPDRFSGSGSGTDFTLTISRLEPEDFAVYYCQQYGSSPLFTFGPGTKVDIK
- % Kill ([2]; Table 11, 3 days): 72%

B10: H1H6765P-SMCC-DM1 (conjugate)
VH: EVQLVESGGGVVRPGGSLRLSCVGSGFSFDDHGMNWVRQGPGKGLEWVSGFNWNGGSTNYAESVKGRFTISRDNARNSLFLQMNSLRAEDTALYYCVRGRSGWFNDAFDVWGPGTMVTVSS
VL: EIVLTQSPGTLSLSPGERATLSCRASQTINSNYLAWYRQKPGQTPRLLIYGTSSRATGIPDRFSGSGSGTDFSLTISRLEPEDFAVFYCQQYAGLPTFGPGTKVDIK
- % Kill ([2]; Table 18): 80%
- IC50 ([2]; Table 18): 80 nM

B11: H1H6765P-mc-VC-PAB-MMAE (conjugate)
VH: EVQLVESGGGVVRPGGSLRLSCVGSGFSFDDHGMNWVRQGPGKGLEWVSGFNWNGGSTNYAESVKGRFTISRDNARNSLFLQMNSLRAEDTALYYCVRGRSGWFNDAFDVWGPGTMVTVSS
VL: EIVLTQSPGTLSLSPGERATLSCRASQTINSNYLAWYRQKPGQTPRLLIYGTSSRATGIPDRFSGSGSGTDFSLTISRLEPEDFAVFYCQQYAGLPTFGPGTKVDIK
- % Kill ([2]; Table 18): 29%

B12: H1H6960N-DM1 (conjugate)
VH: EVQLVESGGGLVKPGGSLRLSCAASGITFSSYSMNWVRQAPGKGLEWVSSISTRSSLIHYADSVKGRFTISRDNAKNSLYLQMNSLRDEDTAVYYCARWDAAAAFDYWGQGTLVIVSS
VL: DIQLTQSPSFLSASVGDRVTITCWASQGISSYLAWYQQKPGKAPKLLIYVASTLQSGVPSRFSGSGSGTEFTLTISSLQPEDFATYFCQQLNSYPLTFGGGTKVEIK
- % Kill ([2]; Table 11, 3 days): 80%
- IC50 ([2]; Table 11, 3 days): 150 nM
- IC50 ([4]; Table 11, 3 days): 75 nM
